Assay results published in US20260216095A1, “NANOSHEET-HYDROGEL COMPOSITES AND METHODS OF US” (Rutgers, The State University of New Jersey, priority 2023, published 2026).

System: aggrecan (ACAN)
Experiment: Rat nucleotomy model, immunohistochemistry for aggrecan
Type: in vivo, Sprague-Dawley rats
Conditions: six weeks
Method: Animal Model Nucleotomy: In total, eight-weeks-old female Sprague-Dawley rats (220-240 g) were purchased from Orient Bio Inc., Korea, and were acclimatized for a week at a life/dark cycle of 12/12 h (temperature; 22±1° C. and relative humidity; 50%±1%) and free approach to food and water. The animal experiments were performed according to the direction approved by the Institutional Animal Care and Use Committee (IACUC) of CHA Bundang Medical Center (IACUC 200141). At the beginning of the surgery, the peritoneal site was sterilized with 70% alcohol. Afterward, rats were thoroughly anesthetized with a general anesthesia mixture of Zoletil® (50 mg/kg Virbac Laboratories, France) and Rompun® (10 mg/kg, Bayer, Korea) injected intraperitoneally. […]
Immunohistochemistry: After six weeks of implantation, rats were euthanized via excess carbon dioxide inhalation and coccygeal discs were collected, and immunohistochemical analysis was performed for aggrecan (disc matrix component), collagen type II (a component of disc NP matrix), CGRP (pain-marker), Iba1 (pan-macrophage), CD86 (M1-macrophage) and CD163(M2-macrophage). […] The sections were mounted and finally examined using a fluorescence microscope (Zeiss 880, Germany and Leica SP5, Germany). The percentage of the positive area and cell number relative to DAPI was calculated by using ImageJ Software.

B1: GDF-5 alone: growth differentiation factor 5 (Peprotech, Catalog No. 120-01), given as saline solution (protein, UniProt P43026 382-501, looked up)
Growth/differentiation factor …: APLATRQGKRPSKNLKARCSRKALHVNFKDMGWDDWIIAPLEYEAFHCEGLCEFPLRSHLEPTNHAVIQTLMNSMDPESTPPTCCVPTRLSPISILFIDSANNVVYKQYEDMVVESCGCR
aggrecan expression (IHC): decreased aggrecan expression
